According to PMC5055493, “The PilZ domain of MrkH represents a novel DNA binding motif” (Protein & Cell, 2016):

Assays:
[1] = target: T1, MrkH (tag removed) (Klebsiella pneumoniae) (UniProt G3FT00); assay: fluorescence polarization; settings: EMSA: 50 mM Tris pH 8.0, 100 mM NaCl, 5 mM MgCl2, 20 ul, 100 min on ice; FP: 10 nM FAM-DNA, 25 C, buffer not fully given. Fig. 2G Kd values (High, 10.3, High …)
T1 sequence: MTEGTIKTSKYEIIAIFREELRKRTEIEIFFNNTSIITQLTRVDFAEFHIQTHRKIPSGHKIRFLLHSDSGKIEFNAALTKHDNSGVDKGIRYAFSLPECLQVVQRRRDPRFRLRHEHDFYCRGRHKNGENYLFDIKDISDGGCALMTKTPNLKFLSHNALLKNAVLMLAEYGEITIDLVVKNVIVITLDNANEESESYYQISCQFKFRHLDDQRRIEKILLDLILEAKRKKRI

[2] = target: T2, MBP-MrkH (Klebsiella pneumoniae) (UniProt G3FT00); assay: EMSA; settings: EMSA: 50 mM Tris pH 8.0, 100 mM NaCl, 5 mM MgCl2, 20 ul, 100 min on ice; FP: 10 nM FAM-DNA, 25 C, buffer not fully given. Fig. 2G Kd values (High, 10.3, High …)
T2 sequence: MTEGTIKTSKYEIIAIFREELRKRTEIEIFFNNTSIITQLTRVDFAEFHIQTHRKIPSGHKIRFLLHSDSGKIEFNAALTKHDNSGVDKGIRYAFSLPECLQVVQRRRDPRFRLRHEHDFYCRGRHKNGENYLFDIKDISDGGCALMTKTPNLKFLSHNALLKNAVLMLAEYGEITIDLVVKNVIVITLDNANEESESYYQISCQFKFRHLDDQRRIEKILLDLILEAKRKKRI

[3] = target: T3, MBP-MrkH-PilZ domain (Klebsiella pneumoniae) (UniProt G3FT00); assay: EMSA; settings: EMSA: 50 mM Tris pH 8.0, 100 mM NaCl, 5 mM MgCl2, 20 ul, 100 min on ice; FP: 10 nM FAM-DNA, 25 C, buffer not fully given. Fig. 2G Kd values (High, 10.3, High …)
T3 sequence: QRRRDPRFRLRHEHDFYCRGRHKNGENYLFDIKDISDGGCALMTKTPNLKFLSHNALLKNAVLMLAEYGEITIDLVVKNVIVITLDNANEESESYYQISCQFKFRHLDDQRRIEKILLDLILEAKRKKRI

[4] = target: T4, MrkH (Klebsiella pneumoniae, UniProt G3FT00); assay: ITC; assay type: binding
T4 construct: full-length MrkH, YcgR-N plus PilZ domains; monomer; recombinant

[5] = target: T5, MrkH^105-end (Klebsiella pneumoniae, UniProt G3FT00); assay: ITC; assay type: binding
T5 construct: PilZ domain with interdomain linker, residues 105-end
From the text: ITC on MrkH^105-end | MrkH^105-end also binds to c-di-GMP efficiently

[6] = target: T6, MrkH (tag removed) (Klebsiella pneumoniae, UniProt G3FT00 1-234); assay: fluorescence polarization; no c-di-GMP; EMSA: 50 mM Tris pH 8.0, 100 mM NaCl, 5 mM MgCl2, 20 ul, 100 min on ice; FP: 10 nM FAM-DNA, 25 C, buffer not fully given. Fig. 2G Kd values (High, 10.3, High, 7.5, 24.3, 10.6, 12.7, High) cannot be assigned to mutants. PilZ mutants of Fig. S3B (all lose mrkA binding in EMSA) are not individually named in the material; settings: protein: recombinant; tags: none (tag removed for FP); label: 5'-FAM; blunt
[7] = target: MrkH K154A (Klebsiella pneumoniae, UniProt G3FT00 1-234, K154A); assay: fluorescence polarization; little effect of mutation; EMSA: 50 mM Tris pH 8.0, 100 mM NaCl, 5 mM MgCl2, 20 ul, 100 min on ice; FP: 10 nM FAM-DNA, 25 C, buffer not fully given. Fig. 2G Kd values (High, 10.3, High, 7.5, 24.3, 10.6, 12.7, High) cannot be assigned to mutants. PilZ mutants of Fig. S3B (all lose mrkA binding in EMSA) are not individually named in the material; settings: protein: recombinant; tags: none; label: 5'-FAM; blunt
[8] = target: MrkH K163A (Klebsiella pneumoniae, UniProt G3FT00 1-234, K163A); assay: as above; settings: protein: recombinant; tags: none; label: 5'-FAM; blunt
[9] = target: MrkH K207A (Klebsiella pneumoniae, UniProt G3FT00 1-234, K207A); assay: as above; settings: protein: recombinant; tags: none; label: 5'-FAM; blunt
[10] = target: MrkH K89A (Klebsiella pneumoniae, UniProt G3FT00 1-234, K89A); assay: as above; settings: protein: recombinant; tags: none; label: 5'-FAM; blunt
[11] = target: T6, MrkH (tag removed); assay: fluorescence polarization; EMSA: 50 mM Tris pH 8.0, 100 mM NaCl, 5 mM MgCl2, 20 ul, 100 min on ice; FP: 10 nM FAM-DNA, 25 C, buffer not fully given. Fig. 2G Kd values (High, 10.3, High, 7.5, 24.3, 10.6, 12.7, High) cannot be assigned to mutants. PilZ mutants of Fig. S3B (all lose mrkA binding in EMSA) are not individually named in the material; settings: protein: recombinant; tags: none (tag removed for FP); label: 5'-FAM; blunt

GCTGCGCTGTAAACAACCACCCTCGCGTTTTCATCTATCAATGGCTGTTTATTAATAGTCGATGGTTATCTGTTATATAACTTAATGAAACGTGAACAAATGTATATTTGTCGGCGAATAAATAGCATTCTTTGACGCCGATAGCACCAGCGAACTTATATTTTTAGGTTCGTTACCTGACGCCTTAAATATTGCGGCTCCCGGTCAGTCGAAGATTCTATTAGCAGTGGCATAAATCAGCATCGCCTGATGTTTCTGGTTCTATGCGAATTCACAGTGTGCT (double strand) [PmrkA -117 to +166 (FAM)]
Kd [1]: 3.07 µM

ACTTAAGTTTTTATCCTTCGACCGGTCTCCAGCTTGGAGGCCGTTGTCGTTTTTGTCATGACCAAAATTCGAAACTCTTGATTACAGGAAATACAATATCAAATTCCAAGTTTATACATATCAATCTGGCTGCAAAGATAGTCAATAACATCAAACGCTCATAAAAACATCTGATTAACCCAATCAGAATGTTGCTATTGCTATAAGAAAAATCAAACGCCTCACGACAACTATTTACAAGGGATGCAT (double strand) [mrkHI promoter 250 bp]
binding [2]: binds
binding [3]: binds

Nc1nc2c(ncn2[C@@H]2O[C@@H]3CO[P@](=O)(O)O[C@H]4[C@@H](O)[C@H](n5cnc6c(=O)[nH]c(N)nc65)O[C@@H]4CO[P@](=O)(O)O[C@H]3[C@H]2O)c(=O)[nH]1 [c-di-GMP]
Kd [4]: ~0.24 µM
Kd [5]: 0.45 ± 0.1 µM

B1: PmrkA -117 to -37 (FAM) (dsDNA)
DNA 1: GCTGCGCTGTAAACAACCACCCTCGCGTTTTCATCTATCAATGGCTGTTTATTAATAGTCGATGGTTATCTGTTATATAA
DNA 2: TTATATAACAGATAACCATCGACTATTAATAAACAGCCATTGATAGATGAAAACGCGAGGGTGGTTGTTTACAGCGCAGC
Kd [6]: 8.24 ± 2.23 µM
binding result [7]: binds
binding result [8]: binds
binding result [9]: binds
binding result [10]: binds

B2: 80 bp random sequence (FAM) (dsDNA)
DNA 1: ATAAATAGCATTCTTTGACGCCGATAGCACCAGCGAACTTATATTTTTAGGTTCGTTACCTGACGCCTTAAATATTGCGG
DNA 2: CCGCAATATTTAAGGCGTCAGGTAACGAACCTAAAAATATAAGTTCGCTGGTGCTATCGGCGTCAAAGAATGCTATTTAT
Kd [11]: 7.45 ± 2.81 µM
